Values quoted from earlier work as cited in patent publication US20090098130A1, “GLUCAGON-LIKE PROTEIN-1 RECEPTOR (GLP-1R) AGONIST COMPOUNDS” (priority 2007, published 2009).

Conditions: after incubation with β-diketone

Molecule	enaminone absorbance (λmax=318 nm)
h38C2 IgG: humanized aldolase catalytic antibody h38c2 IgG1 (antibody, listed as Homo sapiens, V domains shown, (1)..(30) FR1; (1)..(23) FR1) VH: EVQLVESGGGLVQPGGSLRLSCAASGFTFSNYWMSWVRQSPEKGLEWVSEIRLRSDNYATHYAESVKGRFTISRDNSKNTLYLQMNSLRAEDTGIYYCKTYFYSFSYWGQGTLVTVSS VL: ELQMTQSPSSLSASVGDRVTITCRSSQSLLHTYGSPYLNWYLQKPGQSPKLLIYKVSNRFSGVPSRFSGSGSGTDFTLTISSLQPEDFAVYFCSQGTHLPYTFGGGTKVEIK	showed the characteristic enaminone absorbance
m38C2 IgG: mouse monoclonal aldolase antibody with a reactive lysine (antibody, listed as Mus musculus, V domains shown, (1)..(30) FR1; (1)..(23) FR1) VH: EVKLVESGGGLVQPGGTMKLSCEISGLTFRNYWMSWVRQSPEKGLEWVAEIRLRSDNYATHYAESVKGKFTISRDDSKSRLYLQMNSLRTEDTGIYYCKTYFYSFSYWGQGTLVTVSA VL: DVVMTQTPLSLPVRLGDQASISCRSSQSLLHTYGSPYLNWYLQKPGQSPKLLIYKVSNRFSGVPDRFSGSGSGTDFTLRISRVEAEDLGVYFCSQGTHLPYTFGGGTKLEIK	showed the characteristic enaminone absorbance
